Consider three substances from patent publication US20060073149A1.

The target of one experiment is Soluble Aβ 1-42 (UniProt P05067). Put plainly: SPR (BIAcore 2000), antibody captured on anti-Ig, soluble Aβ in flow. Background: Surface plasmon resonance follows binding to a sensor surface in real time, without labels.
The target in the next experiment is Soluble Aβ 1-40 (UniProt P05067). The description is as above.

As usually defined, the Kd is the equilibrium constant for the complex coming apart. A low value points to higher affinity.

anti-Aβ murine antibody 4G8: the Kd in the experiment with Soluble Aβ 1-42 amounted to 24 nM; with Soluble Aβ 1-40, 23 nM.

anti-Aβ murine antibody 21F12 gave a Kd with Soluble Aβ 1-42 of 4.4 nM.

Regarding Murine anti-Aβ antibody 266, the Kd in the experiment with Soluble Aβ 1-42 and with Soluble Aβ 1-40 was 0.004 nM in each case.
